Assay results from patent US7999070B2, “Process for screening of a binding peptide specific for specific RNA and RNA binding peptides therefrom” (priority 2005, dated 2011).
Where no end group is shown, it is not given here.

Tests used:
[1] = Circular dichroism (CD) of the selected peptide, percentage of alpha-helix; type: physicochemical; conditions: for degree of alpha-helices (percentage of alpha-helix, fn): CD at 20° C., 222 nm; for degree of alpha-helices, comparison with Rev peptide (number in parenthesis): relative to Rev peptide (natural RRE RNA binding peptide)
Protocol: CD was measured at 20° C. by using JASCO model J715 spectropolarimeter. Scanning of 190-260 nm wave length was performed three times with 1 nm of bandwidth, 0.5 nm of datapitch and 100 nm/min speed. The results of the scanning were averaged to obtain CD data. Background spectrum was measured to correct the basic spectrum, and CD signals were converted into mean residue ellipticity [Q]. The percentage of alpha-helix (fn) is calculated by the following formula. [Q]=Qobs[MRW/(101c)]
MRW=mean residue weight (molecular weight is divided by the number of peptide bond), I=length of passway (cm), C=concentration (mg/mL). fn=([Q]222−[Q]coil)/([Q]helix−[Q]coil)
[Q]222=mean residue ellipticity (deg cm2 mol−1) at 222 nm, [Q]helix=ellipticity of authentic helical peptide, [Q]coil=ellipticity of authentic random coil peptide, n=number of amino acid, t=° C.

RRE RNA of HIV-1 = assay: Binding capacity of peptide to RRE RNA, fluorescence anisotropy in competition with CRP probe
Protocol: 100 ml of RRE RNA solution was prepared at the concentration of […], which stood at 65° C. for 10 minutes. Then, the solution was cooled down slowly at room temperature to induce folding. Peptide solution was prepared respectively at the concentration of […] and 1.0 mM, and both of them were maintained at 0° C. […] CRP (5-carboxytetramethylrhodamine labeled paromomycin) was prepared as a probe. Buffer solution was prepared by mixing 140 mM NaCl, 5 mM KCl, 1 mM MgCl2 and 20 mM HEPES (N-2-Hydroxyethylpiperazine-N′-2-Ethanesulfonic Acid, pH 7.4). Fluorescence anisotropy was measured with AMINCO-Bowman Series Luminescence Spectrometer at 20° C. 10 nM CRP was added to […] of buffer solution, to which RRE RNA was added in order to combine CRP with RNA. At that time, anisotropy was increased. Thereafter, peptide competitively binding to CRP was added and the changes of anisotropy were measured. The binding capacity to RRE RNA of the peptide was determined by the KaleidaGraph as follows; [Peptide]=Kd(Amax−A)/[Kd(A−A0)+1]*[RNA]−Kd(A−A0)/(Amax−A)[CRP]0(A−A0)/(Amax−A0)
[Peptide] indicates the concentration of the peptide, [RNA] indicates the concentration of RNA and [CRP] indicates the concentration of CRP. A is the value of fluorescence anisotropy of a sample, Amax is the value of totally bound tracer and A0 is the value of totally free tracer.

TAR RNA = assay: Binding capacity to TAR RNA by fluorescence anisotropy
Protocol: (§1) The detailed investigation on the specificity of peptide 16 (SEQ. ID. No 16) was not performed in the present invention, however the binding capacity to TAR RNA and tRNA, general peptides having stem-loop, was tested by fluorescence anisotropy.

tRNA = assay: Binding capacity to tRNA by fluorescence anisotropy
Protocol: as §1

## LK*KLLKLLK*KLLK*LKG (LK(dimethyl)KLLKLLK(dimethyl)KLLK(dimethyl)LKG-NH2) [peptide 33, K* is dimethylated lysine]
[1]
  degree of alpha-helices (percentage of alpha-helix, fn): 7.5
  degree of alpha-helices, comparison with Rev peptide (number in parenthesis): 1.1

## LKK*LLKLLK*KLLKLKG (LKK(dimethyl)LLKLLK(dimethyl)KLLKLKG-NH2) [peptide 16, K* is dimethylated lysine]
RRE RNA of HIV-1
  Kd: < 1 nM
TAR RNA
  binding capacity to TAR RNA: hundreds and tens
tRNA
  binding capacity to tRNA: hundreds and tens
[1]
  degree of alpha-helices (percentage of alpha-helix, fn): 13
  degree of alpha-helices, comparison with Rev peptide (number in parenthesis): 2.0

## LKK*LLKLLKKLLK*LKG (LKK(dimethyl)LLKLLKKLLK(dimethyl)LKG-NH2) [peptide 18, K* is dimethylated lysine]
[1]
  degree of alpha-helices (percentage of alpha-helix, fn): 4.9
  degree of alpha-helices, comparison with Rev peptide (number in parenthesis): 0.71

## LKK*LLKLLKKLLKLKG (LKK(dimethyl)LLKLLKKLLKLKG-NH2) [peptide 3, K* is dimethylated lysine]
[1]
  degree of alpha-helices (percentage of alpha-helix, fn): 4.9
  degree of alpha-helices, comparison with Rev peptide (number in parenthesis): 0.72

## LKKLLKLLK*KLLK*LKG (LKKLLKLLK(dimethyl)KLLK(dimethyl)LKG-NH2) [peptide 25, K* is dimethylated lysine]
[1]
  degree of alpha-helices (percentage of alpha-helix, fn): 6.6
  degree of alpha-helices, comparison with Rev peptide (number in parenthesis): 1.0

## LKKLLKLLKKLLK*LKG (LKKLLKLLKKLLK(dimethyl)LKG-NH2) [peptide 7, K* is dimethylated lysine]
[1]
  degree of alpha-helices (percentage of alpha-helix, fn): 2.7
  degree of alpha-helices, comparison with Rev peptide (number in parenthesis): 0.40

## LKKLLKLLKKLLKLKG [peptide 1]
[1]
  degree of alpha-helices (percentage of alpha-helix, fn): 15
  degree of alpha-helices, comparison with Rev peptide (number in parenthesis): 2.2
